This note sets out measurements from patent US20160289340A1 (published 2016).

The target in assay [1] is T1, BSA control protein (bovine, UniProt P02769 25-607).
T1 construct: Unconjugated BSA used as negative control coating next to SSEA-4-BSA glycoconjugate; also called bovine serum albumin
Nature of the assay: ELISA, serially diluted IgG on coated BSA, anti-human IgG-HRP.

The target in assay [2] is T1, BSA control protein. The assay can be described thus: phage ELISA, serially diluted phage on coated BSA.

T1 sequence (P02769 25-607 limits assumed): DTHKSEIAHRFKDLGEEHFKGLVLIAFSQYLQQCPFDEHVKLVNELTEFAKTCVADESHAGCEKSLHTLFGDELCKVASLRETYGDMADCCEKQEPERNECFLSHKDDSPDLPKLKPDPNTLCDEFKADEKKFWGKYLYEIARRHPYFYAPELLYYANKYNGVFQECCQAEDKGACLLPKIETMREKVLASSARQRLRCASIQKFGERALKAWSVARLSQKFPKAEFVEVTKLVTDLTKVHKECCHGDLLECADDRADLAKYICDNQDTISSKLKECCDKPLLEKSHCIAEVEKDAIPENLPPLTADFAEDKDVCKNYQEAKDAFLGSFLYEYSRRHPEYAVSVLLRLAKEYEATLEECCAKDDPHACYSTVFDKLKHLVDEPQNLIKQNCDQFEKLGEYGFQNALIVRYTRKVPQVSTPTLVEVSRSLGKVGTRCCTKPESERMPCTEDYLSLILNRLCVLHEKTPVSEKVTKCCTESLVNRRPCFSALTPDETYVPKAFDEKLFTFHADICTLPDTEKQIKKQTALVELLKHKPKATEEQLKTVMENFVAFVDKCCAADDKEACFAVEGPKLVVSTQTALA

B1: 3rd humanized MC41 IgG (antibody, V domains shown)
VH: QVQLKESGPGLVAPSKTLSLTCTVSGFSLSSQGVYWIRQPPGKGLEWIGAIWAGGSTNYNSALMSRLSISKDNSKSQVFLKMNSLQTDDTAMYYCARVDGYRGYNMDYWGQGTSVTVSS
VL: ENVLTQSPAIMSATPGEKVTMTCSASSSVSYMHWYQQKSSTSPKLWIYDTSKLASGVPGRFSGSGSGNSYTLTISSMEAEDVATYYCFQGSGYPLTFGAGTKLEIKR
notes: also called humanized 3rd MC41
For the molecule B1, the binding result in the assay with BSA control protein [1] is “no binding”.

B2: chimeric MC41 (chMC41) (antibody, V domains shown)
VH: QVQLKESGPGLVAPSKSLSITCTVSGFSLSSQGVYWVRQPPGKGLEWLGAIWAGGSTNYNSALMSRLSISKDNSKSQVFLKMNSLQTDDTAMYYCARVDGYRGYNMDYWGQGTSVTVSS
VL: ENVLTQSPAIMSASPGEKVTMTCSASSSVSYMHWYQQKSSTSPKLWIYDTSKLASGVPGRFSGSGSGNSYSLTISSMEAEDVATYYCFQGSGYPLTFGAGTKLELKR
notes: Intact chimeric IgG of MC41
On to B2, for which, in the assay with BSA control protein [1], the binding result is on record as “no binding”.

B3: 2nd humanized MC41 IgG (antibody, V domains shown)
VH: QVQLKESGPGLVAPSKTLSLTCTVSGFSLSSQGVYWIRQPPGKGLEWIGAIWAGGSTNYNSALMSRLSISKDNSKSQVFLKMNSLQTDDTAMYYCARVDGYRGYNMDYWGQGTLVTVSS
VL: ENVLTQSPAIMSATPGEKVTMTCSASSSVSYLHWYQQKSSTSPKLWIYDTSKLASGVPGRFSGSGSGNSYTLTISSMEAEDVATYYCFQGSGYPLTFGAGTKLEIKR
notes: also called hMC41; humanized 2nd MC41
Regarding B3, the binding result with BSA control protein [1] is on record as “no binding”.

B4: 3rd scFv phage clone of humanized MC48 variant (scFv)
scFv: QVQLQESGPGLVKPSETLSLTCTVSGFSLTSYGVSWIRQPPGKGLEWIGVIWGEGSTNYHSVLISRLTISKDNSKSQVFLKLNSLQTDDTATYYCAMTGTAYWGQGTLVTVSSGGGGSGGGGSGGGGSQIVLTQSPAIMSASPGEKVTMTCSASSSVSYMHWYQQKPGLAPRLLIYDTSKLSSGVPGRFSGSGSGTSYSLTISRLEAEDAATYYCHQWSSSPHTFGGGTKVEIKR
notes: also called 3rd humanized MC48 scFv phage; hMC48 (3rd)
As to B4, the binding result in the assay with BSA control protein [2] was “no binding”.

B5: 4th scFv phage clone of humanized MC48 variant (scFv)
scFv: QVQLKESGPGLVAPSQSLSITCTVSGFSLTSYGVSWIRQPPGKGLEWIGVIWGEGSTNYHSVLISRLTISKDNSKSQVFLKLNSLQTDDTATYYCAMTGTAYWGQGTLVTVSSGGGGSGGGGSGGGGSQIVLTQSPAIMSASPGEKVTMTCSASSSVSYMHWYQQKSGTSPKRWIYDTSKLSSGVPGRFSGSGSGTSYSLTISRLEAEDAATYYCHQWSSSPHTFGGGTKVEIKR
notes: also called 4th humanized MC48 scFv phage; hMC48 (4th)
On to B5, for which, in the assay with BSA control protein [2], the binding result is recorded as “no binding”.
